# Biological target: ILT3 on target cells (MOLM13, OCI-AML-2, NALM-1, THP-1, MM1S, H929, U226B1 and other lines) (human) (UniProt Q8NHJ6)
# Assay: cell-based or functional assay
# Chain of ILT3 on target cells (MOLM13, OCI-AML-2, NALM-1, THP-1, MM1S, H929, U226B1 and other lines) (human) (Q8NHJ6 22-448, one chain of several): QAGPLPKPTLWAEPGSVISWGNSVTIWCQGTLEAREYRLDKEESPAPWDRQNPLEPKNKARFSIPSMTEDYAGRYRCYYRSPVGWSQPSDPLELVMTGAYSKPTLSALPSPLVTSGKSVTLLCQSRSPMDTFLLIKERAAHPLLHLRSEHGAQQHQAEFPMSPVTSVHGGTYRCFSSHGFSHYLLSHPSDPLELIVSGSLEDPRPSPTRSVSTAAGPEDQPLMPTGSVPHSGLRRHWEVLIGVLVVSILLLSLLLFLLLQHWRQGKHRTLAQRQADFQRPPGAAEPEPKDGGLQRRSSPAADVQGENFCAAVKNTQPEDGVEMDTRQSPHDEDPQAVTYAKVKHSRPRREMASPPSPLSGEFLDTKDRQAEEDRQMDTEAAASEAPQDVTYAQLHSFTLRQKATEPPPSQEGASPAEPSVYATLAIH
"TDCC, EC50 [nM]","TNF-α, EC50 (nM), cytokine release in the TDCC co-culture [nM]",Binder
0.025,2.51,"48A6 Fab coupled with CD3 scFv 2B2 (bispecific antibody, part only; not given: CD3 scFv 2B2, V domains shown, part only) VH: EVQLVESGGDLMKPGGSLKLSCAASGFTFSSYGMSWVRQTPDKRLEWVATISSGGTYTFYPDSVKGRFTISRDNAKNTLYLQMSSLKSEDTAMYYCARRGWLLHYYAMDYWGQGTSVTVSS VL: NIVLTQSPASLAVSLGQRATISCRPSESVDSFGNSFMHWFQQKPGQPPKLLIYLSSKLESGVPARFSGSGSRTDFTLTIDPVEADDAATYYCQQHNEDPFTFGSGTKLEIK"
1.26,,"Hz45G10 Fab coupled with CD3 scFv 1G4 (bispecific antibody, part only; not given: CD3 scFv 1G4, V domains shown, part only) VH: EVQLVESGGGLVQPGGSLRLSCAASGFTFSDYGMHWVRQAPGKGLEWVAYIFSGSSTIYYADTVKGRFTISRDNAKNSLYLQMNSLRAEDTAVYYCARADGRGAMDYWGQGTLVTVSS VL: DIQMTQSPSSLSASVGDRVTITCRASQDISKFLNWYQQKPGKAPKLLIYYTSRLHSGVPSRFSGSGSGTDFTFTISSLQPEDIATYFCQQGNTLPWTFGGGTKLEIK"
0.013,2,"53F10 Fab coupled with CD3 scFv 2B2 (bispecific antibody, part only; not given: CD3 scFv 2B2, V domains shown, part only) VH: EVQVVESGGGLVKPGGSLKLSCAASGFTFSDYGMHWVRQAPEKGLEWVAYISTGIITVYYADTVKGRFTMSRDNAKNTLFLQMTSLRSEDTAIYYCARADGRGAMDYWGQGTSVIVSS VL: DIQMTQTTSSLSASLGDRVTISCRASQDISNFLNWYQQKPDGTVTLLIYYTSRLHSGVPSRFSGSGSGTDYSLTISNLEQEDFATYFCQQGNTLPWTFGGGTKLEIK"
2,,"53F10 Fab coupled with CD3 scFv 1G4 (bispecific antibody, part only; not given: CD3 scFv 1G4, V domains shown, part only) VH: EVQVVESGGGLVKPGGSLKLSCAASGFTFSDYGMHWVRQAPEKGLEWVAYISTGIITVYYADTVKGRFTMSRDNAKNTLFLQMTSLRSEDTAIYYCARADGRGAMDYWGQGTSVIVSS VL: DIQMTQTTSSLSASLGDRVTISCRASQDISNFLNWYQQKPDGTVTLLIYYTSRLHSGVPSRFSGSGSGTDYSLTISNLEQEDFATYFCQQGNTLPWTFGGGTKLEIK"

# The remaining lines, values behind:
Binder,"TDCC, EC50 [nM]","TNF-α, EC50 (nM), cytokine release in the TDCC co-culture [nM]"
"48A6 Fab coupled with CD3 scFv 1G4 (bispecific antibody, part only; not given: CD3 scFv 1G4, V domains shown, part only) VH: EVQLVESGGDLMKPGGSLKLSCAASGFTFSSYGMSWVRQTPDKRLEWVATISSGGTYTFYPDSVKGRFTISRDNAKNTLYLQMSSLKSEDTAMYYCARRGWLLHYYAMDYWGQGTSVTVSS VL: NIVLTQSPASLAVSLGQRATISCRPSESVDSFGNSFMHWFQQKPGQPPKLLIYLSSKLESGVPARFSGSGSRTDFTLTIDPVEADDAATYYCQQHNEDPFTFGSGTKLEIK",0.5,
"16C5 Fab coupled with CD3 scFv 1G4 (bispecific antibody, part only; not given: CD3 scFv 1G4, V domains shown, part only) VH: EVQLQQSGPELVKPGASVKISCKASGYTFTDYNMDWVKQSHGKSLEWIGYIYPSNGGTGYNQKFKSKATLTVDKSSNTAYMELHSLTSEDSAVYYCARVPYYDYLYYYAMDYWGQGTSVTVSS VL: QIVLSQSPAILSASPGEKVTMACRASSSVSFMHWYQQKPGSSPQPWIYATSNLASGVPARFSGSGSGTSYSLTISRVEAEDAATYYCQQWSTNPYMYTFGGGTKLEIK",50.1,
"16C5 Fab coupled with CD3 scFv 2B2 (bispecific antibody, part only; not given: CD3 scFv 2B2, V domains shown, part only) VH: EVQLQQSGPELVKPGASVKISCKASGYTFTDYNMDWVKQSHGKSLEWIGYIYPSNGGTGYNQKFKSKATLTVDKSSNTAYMELHSLTSEDSAVYYCARVPYYDYLYYYAMDYWGQGTSVTVSS VL: QIVLSQSPAILSASPGEKVTMACRASSSVSFMHWYQQKPGSSPQPWIYATSNLASGVPARFSGSGSGTSYSLTISRVEAEDAATYYCQQWSTNPYMYTFGGGTKLEIK",3.16,398
"12A12 Fab coupled with CD3 scFv 1G4 (bispecific antibody, part only; not given: CD3 scFv 1G4, V domains shown, part only) VH: EVQLQQSGPELVKPGASVKISCKASGYTFTDYNMDWVKQSHGKSLEWIGYIYPNNGGTGYNQKFNSKATLTVDKSSSTAYMELHSLTSEDSAVYYCASSPYYDYVGSYAMDYWGQGTSVTVSS VL: QIVLTQSPAIMSASLGERVTMTCTASSSVSSSYLHWYQQKPGSSPKLWIYSTSNLASGVPARFSGSGSGTSYSLTISSMEAEDAATYYCHQYHRSPRTFGGGTKLEIK",251,
"12A12 Fab coupled with CD3 scFv 2B2 (bispecific antibody, part only; not given: CD3 scFv 2B2, V domains shown, part only) VH: EVQLQQSGPELVKPGASVKISCKASGYTFTDYNMDWVKQSHGKSLEWIGYIYPNNGGTGYNQKFNSKATLTVDKSSSTAYMELHSLTSEDSAVYYCASSPYYDYVGSYAMDYWGQGTSVTVSS VL: QIVLTQSPAIMSASLGERVTMTCTASSSVSSSYLHWYQQKPGSSPKLWIYSTSNLASGVPARFSGSGSGTSYSLTISSMEAEDAATYYCHQYHRSPRTFGGGTKLEIK",3.16,2510
"3A3 Fab coupled with CD3 scFv 2B2 (bispecific antibody, part only; not given: CD3 scFv 2B2, V domains shown, part only) VH: QVQLKESGPGLVAPSQSLSITCTVSGFSLTSYGVHWVRQPPGKGLEWLGVIWPGGTINYNSALMSRLSISKDNSKSQVFLKLNSLQTDDTAMYYCASDKYDGGWFAYWGQGTLVTVSA VL: DIVMTQSQKFMSTSVGDRVSITCKASQNVRTAVAWYQQKPGQSPEALIYLASNRHTGVPDRFTGSGSGTDFSLSISNVQSEDLADYFCLQHLNYPLTFGSGTKLEIK",0.4,79.4
"3A3 Fab coupled with CD3 scFv 1G4 (bispecific antibody, part only; not given: CD3 scFv 1G4, V domains shown, part only) VH: QVQLKESGPGLVAPSQSLSITCTVSGFSLTSYGVHWVRQPPGKGLEWLGVIWPGGTINYNSALMSRLSISKDNSKSQVFLKLNSLQTDDTAMYYCASDKYDGGWFAYWGQGTLVTVSA VL: DIVMTQSQKFMSTSVGDRVSITCKASQNVRTAVAWYQQKPGQSPEALIYLASNRHTGVPDRFTGSGSGTDFSLSISNVQSEDLADYFCLQHLNYPLTFGSGTKLEIK",50.1,

# — patent US20250206820A1
